Laboratory results taken from the supplement of paper PMC11246515.
± gives the standard deviation of the averaged measurements.

Assay: total protein half-life in vivo (active degradation + dilution); higher = more stable protein
[1] = E. coli NCM3722 delta-clpP delta-lon delta-hslV, growth: N-lim chemostat, doubling time 6 h
[2] = E. coli NCM3722 delta-clpP, growth: N-lim chemostat, doubling time 6 h
[3] = E. coli NCM3722 delta-hslV, growth: N-lim chemostat, doubling time 6 h
[4] = E. coli NCM3722 delta-lon, growth: N-lim chemostat, doubling time 6 h
[5] = E. coli NCM3722 delta-smpB, growth: N-lim chemostat, doubling time 6 h
[6] = wild type E. coli NCM3722, growth: C-lim chemostat, doubling time 3 h
[7] = wild type E. coli NCM3722, growth: C-lim chemostat, doubling time 6 h
[8] = wild type E. coli NCM3722, growth: C-lim chemostat, doubling time 12 h
[9] = wild type E. coli NCM3722, growth: N-lim chemostat, doubling time 6 h
[10] = wild type E. coli NCM3722, growth: N-lim chemostat, doubling time 12 h
[11] = wild type E. coli NCM3722, growth: P-lim chemostat, doubling time 6 h
[12] = wild type E. coli NCM3722, growth: P-lim chemostat, doubling time 12 h

MSEAEARPTNFIRQIIDEDLASGKHTTVHTRFPPEPNGYLHIGHAKSICLNFGIAQDYKGQCNLRFDDTNPVKEDIEYVESIKNDVEWLGFHWSGNVRYSSDYFDQLHAYAIELINKGLAYVDELTPEQIREYRGTLTQPGKNSPYRDRSVEENLALFEKMRAGGFEEGKACLRAKIDMASPFIVMRDPVLYRIKFAEHHQTGNKWCIYPMYDFTHCISDALEGITHSLCTLEFQDNRRLYDWVLDNITIPVHPRQYEFSRLNLEYTVMSKRKLNLLVTDKHVEGWDDPRMPTISGLRRRGYTAASIREFCKRIGVTKQDNTIEMASLESCIREDLNENAPRAMAVIDPVKLVIENYQGEGEMVTMPNHPNKPEMGSRQVPFSGEIWIDRADFREEANKQYKRLVLGKEVRLRNAYVIKAERVEKDAEGNITTIFCTYDADTLSKDPADGRKVKGVIHWVSAAHALPVEIRLYDRLFSVPNPGAADDFLSVINPESLVIKQGFAEPSLKDAVAGKAFQFEREGYFCLDSRHSTAEKPVFNRTVGLRDTWAKVGE
total protein half-life in vivo [1]: 5.89 ± 0.95 h | total protein half-life in vivo [2]: 5.11 ± 0.2 h | total protein half-life in vivo [3]: 4.97 ± 0.059 h | total protein half-life in vivo [4]: 5.31 ± 0.48 h | total protein half-life in vivo [5]: 4.92 ± 0.16 h | total protein half-life in vivo [6]: 3.11 ± 0.31 h | total protein half-life in vivo [7]: 6.39 ± 0.22 h | total protein half-life in vivo [8]: 11.47 ± 0.028 h | total protein half-life in vivo [9]: 5.25 ± 0.2 h | total protein half-life in vivo [10]: 9.02 ± 0.47 h | total protein half-life in vivo [11]: 5.959 ± 0.047 h | total protein half-life in vivo [12]: 12.1 ± 0.73 h

MSEEKLGQHYLAALNEAFPGVVLDHAWQTKDQLTVTVKVNYLPEVVEFLYYKQGGWLSVLFGNDERKLNGHYAVYYVLSMEKGTKCWITVRVEVDANKPEYPSVTPRVPAAVWGEREVRDMYGLIPVGLPDERRLVLPDDWPDELYPLRKDSMDYRQRPAPTTDAETYEFINELGDKKNNVVPIGPLHVTSDEPGHFRLFVDGENIIDADYRLFYVHRGMEKLAETRMGYNEVTFLSDRVCGICGFAHSTAYTTSVENAMGIQVPERAQMIRAILLEVERLHSHLLNLGLACHFTGFDSGFMQFFRVRETSMKMAEILTGARKTYGLNLIGGIRRDLLKDDMIQTRQLAQQMRREVQELVDVLLSTPNMEQRTVGIGRLDPEIARDFSNVGPMVRASGHARDTRADHPFVGYGLLPMEVHSEQGCDVISRLKVRINEVYTALNMIDYGLDNLPGGPLMVEGFTYIPHRFALGFAEAPRGDDIHWSMTGDNQKLYRWRCRAATYANWPTLRYMLRGNTVSDAPLIIGSLDPCYSCTDRMTVVDVRKKKSKVVPYKELERYSIERKNSPLK
total protein half-life in vivo [1]: 4.79 h | total protein half-life in vivo [3]: 2.89 h | total protein half-life in vivo [4]: 3.68 h | total protein half-life in vivo [5]: 2.74 ± 0.029 h | total protein half-life in vivo [6]: 2.46 h | total protein half-life in vivo [7]: 5.18 h | total protein half-life in vivo [8]: 11.2 ± 0.78 h | total protein half-life in vivo [9]: 3.86 ± 1.7 h | total protein half-life in vivo [11]: 5.02 h | total protein half-life in vivo [12]: 8.26 ± 0.97 h

MSEKSIVQEARDIQLAMELITLGARLQMLESETQLSRGRLIKLYKELRGSPPPKGMLPFSTDWFMTWEQNVHASMFCNAWQFLLKTGLCNGVDAVIKAYRLYLEQCPQAEEGPLLALTRAWTLVRFVESGLLQLSSCNCCGGNFITHAHQPVGSFACSLCQPPSRAVKRRKLSQNPADIIPQLLDEQRVQAV [P0ABY7]
total protein half-life in vivo [1]: > 8 h | total protein half-life in vivo [2]: 4.44 h | total protein half-life in vivo [6]: 0.252 h | total protein half-life in vivo [7]: 0.52 h

MSEKVVFSQLSRKFIDENDATPAEAQQVVYYSLAIGHHLGVIDCLEAALTCPWDEYLAWIATLEAGSEARRKMEGVPKYGEIVIDINHVPMLANAFDKARAAQTSQQQEWSTMLLSMLHDIHQENAIYLMVRRLRD [P0AEV7]
total protein half-life in vivo [1]: 3.73 h | total protein half-life in vivo [2]: 2.63 h | total protein half-life in vivo [4]: 2.37 ± 0.25 h | total protein half-life in vivo [5]: 1.7 h | total protein half-life in vivo [6]: 2.34 h | total protein half-life in vivo [7]: 3.73 h | total protein half-life in vivo [8]: 6.99 h | total protein half-life in vivo [9]: 2.24 ± 0.23 h | total protein half-life in vivo [10]: 2.34 h | total protein half-life in vivo [11]: 3.21 h | total protein half-life in vivo [12]: 6.49 ± 0.1 h

MSEKYIVTWDMLQIHARKLASRLMPSEQWKGIIAVSRGGLVPGALLARELGIRHVDTVCISSYDHDNQRELKVLKRAEGDGEGFIVIDDLVDTGGTAVAIREMYPKAHFVTIFAKPAGRPLVDDYVVDIPQDTWIEQPWDMGVVFVPPISGR [P0A9M5]
total protein half-life in vivo [1]: 4.63 ± 0.2 h | total protein half-life in vivo [2]: 3.87 ± 0.29 h | total protein half-life in vivo [3]: 4.153 ± 0.02 h | total protein half-life in vivo [4]: 4.37 ± 0.52 h | total protein half-life in vivo [5]: 4.28 ± 0.093 h | total protein half-life in vivo [6]: 3 ± 0.046 h | total protein half-life in vivo [7]: 5.55 ± 0.23 h | total protein half-life in vivo [8]: 9.92 ± 0.83 h | total protein half-life in vivo [9]: 4.16 ± 0.19 h | total protein half-life in vivo [10]: 6.73 ± 0.53 h | total protein half-life in vivo [11]: 6.07 ± 0.34 h | total protein half-life in vivo [12]: 13.99 ± 0.054 h

MSELNEKLATAWEGFTKGDWQNEVNVRDFIQKNYTPYEGDESFLAGATEATTTLWDKVMEGVKLENRTHAPVDFDTAVASTITSHDAGYINKQLEKIVGLQTEAPLKRALIPFGGIKMIEGSCKAYNRELDPMIKKIFTEYRKTHNQGVFDVYTPDILRCRKSGVLTGLPDAYGRGRIIGDYRRVALYGIDYLMKDKLAQFTSLQADLENGVNLEQTIRLREEIAEQHRALGQMKEMAAKYGYDISGPATNAQEAIQWTYFGYLAAVKSQNGAAMSFGRTSTFLDVYIERDLKAGKITEQEAQEMVDHLVMKLRMVRFLRTPEYDELFSGDPIWATESIGGMGLDGRTLVTKNSFRFLNTLYTMGPSPEPNMTILWSEKLPLNFKKFAAKVSIDTSSLQYENDDLMRPDFNNDDYAIACCVSPMIVGKQMQFFGARANLAKTMLYAINGGVDEKLKMQVGPKSEPIKGDVLNYDEVMERMDHFMDWLAKQYITALNIIHYMHDKYSYEASLMALHDRDVIRTMACGIAGLSVAADSLSAIKYAKVKPIRDEDGLAIDFEIEGEYPQFGNNDPRVDDLAVDLVERFMKKIQKLHTYRDAIPTQSVLTITSNVVYGKKTGNTPDGRRAGAPFGPGANPMHGRDQKGAVASLTSVAKLPFAYAKDGISYTFSIVPNALGKDDEVRKTNLAGLMDGYFHHEASIEGGQHLNVNVMNREMLLDAMENPEKYPQLTIRVSGYAVRFNSLTKEQQQDVITRTFTQSM
total protein half-life in vivo [1]: 4.8 ± 0.094 h | total protein half-life in vivo [2]: 3.3 ± 0.053 h | total protein half-life in vivo [3]: 2.98 ± 0.12 h | total protein half-life in vivo [4]: 3.71 ± 0.17 h | total protein half-life in vivo [5]: 2.58 ± 0.067 h | total protein half-life in vivo [6]: 2 ± 0.078 h | total protein half-life in vivo [7]: 3.04 ± 0.058 h | total protein half-life in vivo [8]: 4.18 ± 0.3 h | total protein half-life in vivo [9]: 3.04 ± 0.21 h | total protein half-life in vivo [10]: 4.452 ± 0.017 h | total protein half-life in vivo [11]: 3.36 ± 0.26 h | total protein half-life in vivo [12]: 6.13 ± 0.27 h

MSELSQLSPQPLWDIFAKICSIPHPSYHEEQLAEYIVGWAKEKGFHVERDQVGNILIRKPATAGMENRKPVVLQAHLDMVPQKNNDTVHDFTKDPIQPYIDGEWVKARGTTLGADNGIGMASALAVLADENVVHGPLEVLLTMTEEAGMDGAFGLQGNWLQADILINTDSEEEGEIYMGCAGGIDFTSNLHLDREAVPAGFETFKLTLKGLKGGHSGGEIHVGLGNANKLLVRFLAGHAEELDLRLIDFNGGTLRNAIPREAFATIAVAADKVDVLKSLVNTYQEILKNELAEKEKNLALLLDSVANDKAALIAKSRDTFIRLLNATPNGVIRNSDVAKGVVETSLNVGVVTMTDNNVEIHCLIRSLIDSGKDYVVSMLDSLGKLAGAKTEAKGAYPGWQPDANSPVMHLVRETYQRLFNKTPNIQIIHAGLECGLFKKPYPEMDMVSIGPTITGPHSPDEQVHIESVGHYWTLLTELLKEIPAK
total protein half-life in vivo [1]: 4.741 ± 0.0055 h | total protein half-life in vivo [2]: 4.94 ± 0.75 h | total protein half-life in vivo [3]: 5.28 ± 0.26 h | total protein half-life in vivo [4]: 4.816 ± 0.018 h | total protein half-life in vivo [5]: 4.53 ± 0.12 h | total protein half-life in vivo [6]: 3.09 ± 0.14 h | total protein half-life in vivo [7]: 5.61 ± 0.4 h | total protein half-life in vivo [8]: 11.1 ± 0.36 h | total protein half-life in vivo [9]: 4.81 ± 0.18 h | total protein half-life in vivo [10]: 8.14 ± 0.0087 h | total protein half-life in vivo [11]: 5.88 ± 0.37 h | total protein half-life in vivo [12]: 13.7 ± 3.1 h
